# Source: publication PMC3103433 (2011)
# B1: His-6-Munc18c [not stated] / Sx4-GST, wild-type Syntaxin 4 cytosolic domain (residues 1-273) [not stated] (parent complex)
# chain 1: MAPPVSERGLKSVVWRKIKTAVFDDCRKEGEWKIMLLDEFTTKLLSSCCKMTDLLEEGITVIENIYKNREPVRQMKALYFISPTPKSVDCFLRDFGSKSEKKYKAAYIYFTDFCPDSLFNKIKASCSKSIRRCKEINISFIPQESQVYTLDVPDAFYYCYSPDPSNASRKEVVMEAMAEQIVTVCATLDENPGVRYKSKPLDNASKLAQLVEKKLEDYYKIDEKGLIKGKTQSQLLIIDRGFDPVSTVLHELTFQAMAYDLLPIENDTYKYKTDGKEKEAVLEEDDDLWVRVRHRHIAVVLEEIPKLMKEISSTKKATEGKTSLSALTQLMKKMPHFRKQISKQVVHLNLAEDCMNKFKLNIEKLCKTEQDLALGTDAEGQRVKDSMLVLLPVLLNKNHDNCDKIRAVLLYIFGINGTTEENLDRLIHNVKIEDDSDMIRNWSHLGVPIVPPSQQAKPLRKDRSAEETFQLSRWTPFIKDIMEDAIDNRLDSKEWPYCSRCPAVWNGSGAVSARQKPRTNYLELDRKNGSRLIIFVIGGITYSEMRCAYEVSQAHKSCEVIIGSTHILTPRKLLDDIKMLNKSKDKVSFKDE
# chain 2: MRDRTHELRQGDNISDDEDEVRVALVVHSGAARLGSPDDEFFQKVQTIRQTMAKLESKVRELEKQQVTILATPLPEESMKQGLQNLREEIKQLGREVRAQLKAIEPQKEEADENYNSVNTRMKKTQHGVLSQQFVELINKCNSMQSEYREKNVERIRRQLKITNAGMVSDEELEQMLDSGQSEVFVSNILKDTQVTRQALNEISARHSEIQQLERSIRELHEIFTFLATEVEMQGEMINRIEKNILSSADYVERGQEHVKIALENQKKARKKK
# B2: His-6-Munc18c [not stated] / Sx4 lacking the N-terminal 36 amino acids (N36Δ), GST fusion [not stated] (parent complex)
# chain 1: B1 chain 1
# chain 2: PDDEFFQKVQTIRQTMAKLESKVRELEKQQVTILATPLPEESMKQGLQNLREEIKQLGREVRAQLKAIEPQKEEADENYNSVNTRMKKTQHGVLSQQFVELINKCNSMQSEYREKNVERIRRQLKITNAGMVSDEELEQMLDSGQSEVFVSNILKDTQVTRQALNEISARHSEIQQLERSIRELHEIFTFLATEVEMQGEMINRIEKNILSSADYVERGQEHVKIALENQKKARKKK
# Variants of: B1
# Test: GST pull-down, anti-Munc18c immunoblot quantification; 1 μg GST fusion on glutathione-Sepharose, 1 μg Munc18c, binding buffer, overnight, 4°C; read off a plot
row,percent of parent,Variant
1,~73 % of wild-type Sx4,"chain 2 MRDRTHELRQGDNISDDEDEVRVALVVHSGAARLGSPDDEFFQKVQTIRQTMAKLESKVRELEKQQVTILATPLPEESMKQGLQNLREEIKQLGREVRAQLKAIEPQKEEADENYNSVNTRMKKTQHGVLSQQFVELINKCNSMQSEYREKNVERIRRQLKITNAGMVSDEEAAQMLDSGQSEVFVSNILKDTQVTRQALNEISARHSEIQQLERSIRELHEIFTFLATEVEMQGEMINRIEKNILSSADYVERGQEHVKIALENQKKARKKK [chain 2 L173A, chain 2 E174A]"

# Variants of: B1
# Test: GST pull-down, anti-Munc18c immunoblot quantification; 1 μg GST fusion on glutathione-Sepharose, 1 μg Munc18c, binding buffer, overnight, 4°C; n=3; read off a plot
row,percent of parent,Variant
1,~89 % of wild-type Sx4,"chain 2 MRDRTHELRQGDNISDDEDEVRVALVVHSGAARLGSPDDEFFQKVQTIRQTMAKLESKVRELEKQQVTILATPLPEESMKQGLQNLREEIKQLGREVRAQLKAIEPQKEEADENYNSVNTRMKKTQHGVLSQQFVELINKCNSMQSEYREKNVERIRRQLKITNAGMVSDEEAAQMLDSGQSEVFVSNILKDTQVTRQALNEISARHSEIQQLERSIRELHEIFTFLATEVEMQGEMINRIEKNILSSADYVERGQEHVKIALENQKKARKKK [chain 2 L173A, chain 2 E174A]"

# Variants of: B2
# Test: GST pull-down, anti-Munc18c immunoblot quantification; 1 μg GST fusion on glutathione-Sepharose, 1 μg Munc18c, binding buffer, overnight, 4°C; read off a plot
row,screen value,Variant
1,~13 % of wild-type Sx4,"chain 2 PDDEFFQKVQTIRQTMAKLESKVRELEKQQVTILATPLPEESMKQGLQNLREEIKQLGREVRAQLKAIEPQKEEADENYNSVNTRMKKTQHGVLSQQFVELINKCNSMQSEYREKNVERIRRQLKITNAGMVSDEEAAQMLDSGQSEVFVSNILKDTQVTRQALNEISARHSEIQQLERSIRELHEIFTFLATEVEMQGEMINRIEKNILSSADYVERGQEHVKIALENQKKARKKK [chain 2 L137A, chain 2 E138A]"

# Variants of: B2
# Test: GST pull-down, anti-Munc18c immunoblot quantification; 1 μg GST fusion on glutathione-Sepharose, 1 μg Munc18c, binding buffer, overnight, 4°C; n=3; read off a plot
row,screen value,Variant
1,~18 % of wild-type Sx4,"chain 2 PDDEFFQKVQTIRQTMAKLESKVRELEKQQVTILATPLPEESMKQGLQNLREEIKQLGREVRAQLKAIEPQKEEADENYNSVNTRMKKTQHGVLSQQFVELINKCNSMQSEYREKNVERIRRQLKITNAGMVSDEEAAQMLDSGQSEVFVSNILKDTQVTRQALNEISARHSEIQQLERSIRELHEIFTFLATEVEMQGEMINRIEKNILSSADYVERGQEHVKIALENQKKARKKK [chain 2 L137A, chain 2 E138A]"
